The values that follow come from patent US20090075898A1 (YEDA RESEARCH AND DEVELOPMENT CO LTD AT THE WEIZMANN …, published 2009).

Ends that are not written are not given here. * marks the point of attachment. Biotin = O=C1N[C@H]2[C@H](CS[C@H]2CCCCC(=O)*)N1

Sequences and labels used below:
T1: C5a (UniProt P01031 678-751)
T1 construct: domain: C5a; Control analyte in SPR
T1 sequence (looked up): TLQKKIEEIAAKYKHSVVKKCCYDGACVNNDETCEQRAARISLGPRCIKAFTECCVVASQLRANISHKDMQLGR

T2: β-chain of the high affinity IgE receptor (FcεRI) on mouse bone marrow derived mast cells (mouse, UniProt P20490 1-235)
T2 sequence (looked up): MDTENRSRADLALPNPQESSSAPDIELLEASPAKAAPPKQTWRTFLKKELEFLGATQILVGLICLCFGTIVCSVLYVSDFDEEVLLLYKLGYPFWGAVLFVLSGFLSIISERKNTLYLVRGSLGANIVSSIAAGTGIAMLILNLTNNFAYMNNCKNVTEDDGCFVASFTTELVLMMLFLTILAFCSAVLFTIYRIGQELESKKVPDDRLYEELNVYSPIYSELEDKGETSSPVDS

T3: multisubunit FcεRI receptor complex on rat RBL-2H3 cells and rat peritoneal mast cells (rat, UniProt P12371 24-245; P13386 1-243; P20411 19-86)
T3 sequence (looked up) 1: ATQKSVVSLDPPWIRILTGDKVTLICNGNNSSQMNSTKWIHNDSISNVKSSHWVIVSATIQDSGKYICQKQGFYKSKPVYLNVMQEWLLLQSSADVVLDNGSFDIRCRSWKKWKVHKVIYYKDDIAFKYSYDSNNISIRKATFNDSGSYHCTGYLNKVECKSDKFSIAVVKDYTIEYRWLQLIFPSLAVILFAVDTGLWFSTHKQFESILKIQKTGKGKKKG
T3 sequence (looked up) 2: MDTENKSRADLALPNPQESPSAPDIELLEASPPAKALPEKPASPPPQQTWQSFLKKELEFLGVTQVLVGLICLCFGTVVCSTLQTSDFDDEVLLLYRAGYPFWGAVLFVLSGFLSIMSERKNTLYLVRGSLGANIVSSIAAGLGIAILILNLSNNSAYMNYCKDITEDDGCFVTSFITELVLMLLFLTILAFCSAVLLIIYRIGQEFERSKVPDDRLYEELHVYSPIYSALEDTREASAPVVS
T3 sequence (looked up) 3: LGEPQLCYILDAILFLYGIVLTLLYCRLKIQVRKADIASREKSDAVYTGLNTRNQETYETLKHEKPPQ

B1: biotinylated peptide of the 1st extracellular loop of the human FcεRI β chain (peptide)
peptide: Biotin-SVLDISHIEGDIFSSFKAGY
notes: also called first extracellular loop of human FcεRI β-chain
B2: human complement component C3a (ligand)
chain: not shown
B3: biotinylated peptide of the 2nd extracellular loop of the human FcεRI β chain (peptide)
peptide: Biotin-KSLAYIHIHSCQKFFETKCFMAS
modifications: cysteine pairing not given here
notes: also called second extracellular loop of human FcεRI β-chain

For assay [1], the target named is T1, C5a. The assay is described as follows: SPR (BIACORE 2000), peptide on streptavidin chip, C5a as analyte.
Assay [2] has as its target B2. The assay is described as follows: SPR (BIACORE 2000), biotinylated peptide on streptavidin chip, C3a as analyte; Kd = koff/kon from kobs plots; first extracellular loop of the human protein.
Assay [3] addresses T2, β-chain of the high affinity IgE …. The assay is described as follows: cell-based or functional assay.
The target of assay [4] is T3, multisubunit FcεRI receptor complex on …. The assay is described as follows: cell-based or functional assay.
Assay [5] deals with B2. The assay is described as follows: SPR (BIACORE 2000), peptide on streptavidin chip, C3a as analyte. (In general: SPR reads the build-up and loss of mass on a sensor chip optically.)

B1: in assay [1], the binding result is “no binding”. Besides, the Kd in assay [2] is 250 nM.
For B2, the “Inhibitory effect (IC50, µM) on the IgE-mediated degranulation of BMMC” value in assay [3] stood at 0.2 µM. The “Inhibitory effect (IC50, µM) on the IgE-mediated degranulation of RBL-2H3” value in assay [4] amounted to 2.4 µM.
For the molecule B3, the binding result in assay [5] and in assay [1] was “no binding” throughout.

The term Kd denotes the constant that tells how readily two partners part at equilibrium. A lower Kd goes with higher affinity.
